Values quoted from earlier work as cited in article PMC2734106.

Assays:
[1] = target: ubiquitin (Homo sapiens) (UniProt P0CG47)
[2] = target: K48-linked tetraubiquitin (Homo sapiens) (UniProt P0CG47)

Sequence of USP5 (P45974 2-858): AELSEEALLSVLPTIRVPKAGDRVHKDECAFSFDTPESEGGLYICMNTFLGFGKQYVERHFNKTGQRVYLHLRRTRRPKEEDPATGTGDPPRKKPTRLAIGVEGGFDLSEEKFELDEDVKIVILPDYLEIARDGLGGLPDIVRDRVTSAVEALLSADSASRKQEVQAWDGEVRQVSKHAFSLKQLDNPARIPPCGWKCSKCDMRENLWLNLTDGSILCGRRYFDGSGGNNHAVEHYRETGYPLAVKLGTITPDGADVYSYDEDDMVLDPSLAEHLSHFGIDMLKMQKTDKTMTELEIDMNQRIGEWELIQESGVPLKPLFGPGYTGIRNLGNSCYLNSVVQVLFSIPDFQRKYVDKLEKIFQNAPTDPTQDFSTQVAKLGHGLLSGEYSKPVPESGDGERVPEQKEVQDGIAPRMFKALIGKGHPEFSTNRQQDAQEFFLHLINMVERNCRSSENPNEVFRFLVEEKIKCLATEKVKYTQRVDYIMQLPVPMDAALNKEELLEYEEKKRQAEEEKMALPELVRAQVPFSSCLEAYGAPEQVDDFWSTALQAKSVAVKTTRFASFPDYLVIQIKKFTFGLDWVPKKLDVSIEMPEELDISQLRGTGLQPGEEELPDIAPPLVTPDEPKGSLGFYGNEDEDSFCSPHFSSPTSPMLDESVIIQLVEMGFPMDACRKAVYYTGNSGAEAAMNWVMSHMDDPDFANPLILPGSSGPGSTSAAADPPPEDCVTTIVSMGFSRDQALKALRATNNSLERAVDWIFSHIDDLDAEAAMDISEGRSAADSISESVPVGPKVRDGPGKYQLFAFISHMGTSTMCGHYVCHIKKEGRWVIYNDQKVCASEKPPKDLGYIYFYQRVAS

## USP5 (from UniProt P45974)
[1]
  Kd: 50 nM
[2]
  Kd: < 1 nM
